# B1: Pistol ribozyme (parent)
# chain: GGGUCGUUGUUCCAUAAUCGCGUGGAUAUGGCACGCAAGUUUCUACCGGGCACCGUAAAUGUCCGACUGGAGCCGUUCGGGCGGCUAUAAACAGACCUCAGGCCCGAAGCGUGGCGGCACCUGCCGCCGGUGGUAAAAAAGAUCGGAAGAGCACACGUCU
# Variants of: B1
# Assay: aptazyme ON/OFF ratio, guanine; higher = stronger switching; co-transcriptional cleavage with and without guanine
row,Variant,aptazyme ON/OFF ratio
1,U8A G9A U11G C12U C13A,1.23
2,U8A G9A U11G C12U C13U,1.51
3,U8A G9A U11G C12U C13G,1.18
4,U8A G9A U11A C12G C13A,1.11
5,U8A G9A U11A C12G C13U,1.04
6,U8A G9A U11A C12G C13G,1.2
7,U8A G9C U10C U11A C12U C13A,1.07
8,U8A G9C U10C U11A C12U C13G,1.06
9,U8A G9C U10C U11A C12U C13U,1.13
10,U8A G9C U10C C13G,1.01
11,U8A G9C U10C C13A,1.01
12,U8A G9C U10C C13U,1.06
13,U8A G9A U11C C13G,1.08
14,U8A G9A U11C C13A,1.04
15,U8A G9A U11C C13U,1.04
16,U8A G9C U10A U11A C12U C13U,1.17
17,U8A G9C U10A U11A C12U C13A,1.18
18,U8A G9C U10A U11A C12U C13G,1.19
19,U8A G9A U11G C12A,1.08
20,U8A G9A U11G C12U,1.35
21,U8A G9A U11G C12G,1.08
22,U8A G9C U10C,1.35
23,U8A G9C U10A,1.38
24,U8A G9C U10C C12U,1.06

row,Variant,aptazyme ON/OFF ratio
1,U8A G9C U10C C12A,1.04
2,U8A G9C U10C C12G,1.05
3,U8A G9A U11A C12G,1.31
4,U8A G9A U11A C12U,1.05
5,U8A G9C U10C U11C C12A C13A,1.04
6,U8A G9C U10C U11C C12A C13U,1.03
7,U8A G9C U10C U11C C12A C13G,1.01
8,U8A G9C U10A U11G C12G C13A,1.15
9,U8A G9C U10A U11G C12G C13U,1.21
10,U8A G9C U10A U11G C12G C13G,1.16
11,U8A G9C U10A U11A C13G,1.08
12,U8A G9C U10A U11A C13A,1.16
13,U8A G9C U10A U11A C13U,1.22
14,U8A G9C U10A C12G C13U,1.14
15,U8A G9C U10A C12G C13A,1.19
16,U8A G9C U10A C12G C13G,1.11
17,U8A G9A U11C C12G C13G,1.15
18,U8A G9A U11C C12G C13A,1.15
19,U8A G9A U11C C12G C13U,1.22
20,U8A G9C U10A U11A,1.37
21,U8A G9C U10A U11G,1.3
22,U8A G9C U10A U11C,1.01
23,U8A G9C U10A U11C C12A,1.21
24,U8A G9C U10A U11C C12G,1.1

row,Variant,aptazyme ON/OFF ratio
1,U8A G9C U10A U11C C12U,1.06
2,U8A G9C C12U C13U,1.2
3,U8A G9C C12U C13G,1.15
4,U8A G9C C12U C13A,1.21
5,U8A G9C U10C C12U C13A,1.04
6,U8A G9C U10C C12U C13U,1.03
7,U8A G9C U10C C12U C13G,1.03
8,U8A G9C,1.2
9,U8A G9C C13G,1.04
10,U8A G9C C13A,1.11
11,U8A G9C C13U,1.17
12,U8A G9A U11C C12U,1.09
13,U8A G9A U11C C12G,1.17
14,U8A G9A U11C C12A,1.16
15,U8A G9C U10C U11C C12U C13A,1.01
16,U8A G9C U10C C12A C13U,0.995
17,U8A G9C U10C C12A C13A,1.03
18,U8A G9C U10C C12A C13G,1.08
19,U8A G9C U10A C12A C13G,1.14
20,U8A G9C U10A C12A C13A,1.22
21,U8A G9C U10A C12A C13U,1.19
22,U8A G9A U11G C12G C13U,1.27
23,U8A G9A U11G C12G C13A,1.23
24,U8A G9A U11G C12G C13G,1.26

row,Variant,aptazyme ON/OFF ratio
1,U8A G9C U10A U11A C12A C13A,1.21
2,U8A G9C U10A U11A C12A C13U,1.37
3,U8A G9C U10A U11A C12A C13G,1.19
4,U8A G9C U10C U11A C13A,1.16
5,U8A G9C U10C U11A C13U,1.11
6,U8A G9C U10C U11A C13G,1.07
7,U8A G9A U11C C12A C13G,1.23
8,U8A G9A U11C C12A C13A,1.07
9,U8A G9A U11C C12A C13U,1.2
10,U8A G9C U10A U11G C12A C13G,1.26
11,U8A G9C U10A U11G C12A C13A,1.14
12,U8A G9C U10A U11G C12A C13U,1.14
13,U8A G9C U10A U11G C12U C13U,1.14
14,U8A G9C U10A U11G C12U C13A,1.17
15,U8A G9C U10A U11G C12U C13G,1.18
16,U8A G9A U11A C12A C13U,1.35
17,U8A G9C C12G C13A,1.2
18,U8A G9C C12G C13G,1.14
19,U8A G9C C12G C13U,1.27
20,U8A G9C U10A C12A,1.27
21,U8A G9C U10A C12G,1.17
22,U8A G9C U10A C12U,1.14
23,U8A G9C U10A U11A C12G C13A,1.14
24,U8A G9C U10A U11A C12G C13G,1.23

row,Variant,aptazyme ON/OFF ratio
1,U8A G9C U10A U11A C12G C13U,1.3
2,U8A G9C U10C U11C C12G,1.01
3,U8A G9C U10C U11C C12A,1.04
4,U8A G9C U10C U11C C12U,1
5,U8A G9A U11G C13A,1.13
6,U8A G9A U11G C13U,1.17
7,U8A G9A U11G C13G,1.09
8,U8A G9C U10A C12U C13G,1.04
9,U8A G9C U10A C12U C13U,0.997
10,U8A G9C U10A C12U C13A,1.09
11,U8A G9C U10A U11C C12A C13U,1.24
12,U8A G9C U10A U11C C12A C13G,1.12
13,U8A G9C U10A U11C C12A C13A,1.22
14,U8A G9C U10C U11A C12A C13U,1.13
15,U8A G9C U10C U11A C12A C13G,1.05
16,U8A G9C U10C U11A C12A C13A,1.04
17,U8A G9C C12A C13U,1.25
18,U8A G9C C12A C13G,1.17
19,U8A G9C C12A C13A,1.24
20,U8A G9A U11C C12U C13G,1.2
21,U8A G9A U11C C12U C13U,1.21
22,U8A G9A U11C C12U C13A,1.23
23,U8A G9A U11A C12U C13U,1.29
24,U8A G9A U11A C12U C13G,1.18

row,Variant,aptazyme ON/OFF ratio
1,U8A G9A U11A C12U C13A,1.39
2,U8A G9C U10A U11C C12U C13A,1.07
3,U8A G9C U10A U11C C12U C13U,1.09
4,U8A G9C U10A U11C C12U C13G,1.15
5,U8A G9C U10C U11C C12G C13U,1.04
6,U8A G9C U10C U11C C12G C13G,1.05
7,U8A G9C U10C U11C C12G C13A,1.01
8,U8A G9C U10C U11A,0.878
9,U8A G9C U10C U11C,1.01
10,U8A G9C U10A U11G C12U,1.25
11,U8A G9C U10A U11G C12A,1.06
12,U8A G9C U10A U11G C12G,1.18
13,U8A G9C U10C U11A C12G C13U,1.16
14,U8A G9C U10C U11A C12G C13A,1.06
15,U8A G9C U10C U11A C12G C13G,1.12
16,U8A G9C U10A U11G C13G,1.04
17,U8A G9C U10A U11G C13U,1.18
18,U8A G9C U10A U11G C13A,1.11
19,U8A G9A U11A C13G,1.03
20,U8A G9A U11A C13A,1.26
21,U8A G9A U11A C13U,1.16
22,U8A G9C U10C U11A C12U,1.13
23,U8A G9C U10C U11A C12A,1.06
24,U8A G9C U10C U11A C12G,1.03

row,Variant,aptazyme ON/OFF ratio
1,U8A G9C U10A U11A C12U,1.24
2,U8A G9C U10A U11A C12G,1.37
3,U8A G9C U10A U11A C12A,1.25
4,U8A G9A U11G,1.44
5,U8A G9A U11C,1.05
6,U8A G9C U10A C13G,1.06
7,U8A G9C U10A C13U,1.13
8,U8A G9C U10A C13A,1.15
9,U8A G9C U10C C12G C13U,1.05
10,U8A G9C U10C C12G C13A,1.07
11,U8A G9C U10C C12G C13G,1.03
12,U8A G9C U10A U11C C12G C13A,1.13
13,U8A G9C U10A U11C C12G C13G,1.09
14,U8A G9C U10A U11C C12G C13U,1.07
15,U8A G9A U11G C12A C13A,1.14
16,U8A G9A U11G C12A C13U,1.09
17,U8A G9A U11G C12A C13G,1.21
18,U8A G9C C12A,1.37
19,U8A G9C C12U,1.3
20,U8A G9C C12G,1.22
21,U8A G9C U10A U11C C13U,1
22,U8A G9C U10A U11C C13G,1.03
23,U8A G9C U10A U11C C13A,1.1
